Experimental data reported in PMC7565927.

Assays:
[1] = anti-V5 Western blot of CHO cell lysates, GAPDH-normalised; settings: glycan lost; control: WT WIF1-V5-His
[2] = anti-V5 Western blot of CHO conditioned media; settings: glycan lost; control: WT WIF1-V5-His

Protein | localisation_or_trafficking [1] | expression_or_secretion, percent_of_wt [2]
WIF1 (Wnt Inhibitory Factor 1): T255A (protein) parent chain: MARRRAFPAFALRLWSILPCLLLLRADAGQPPEESLYLWIDAHQARVLIGFEEDILIVSEGKMAPFTHDFRKAQQRMPAIPVNIHSMNFTWQAAGQAEYFYEFLSLRSLDKGIMADPTVNVPLLGTVPHKASVVQVGFPCLGKQDGVAAFEVNVIVMNSEGNTILRTPQNAIFFKTCQQAECPGGCRNGGFCNERRVCECPDGFYGPHCEKALCIPRCMNGGLCVTPGFCICPPGFYGVNCDKANCSTTCFNGGTCFYPGKCICPPGLEGEQCELSKCPQPCRNGGKCIGKSKCKCPKGYQGDLCSKPVCEPGCGAHGTCHEPNKCQCREGWHGRHCNKRYGASLMHAPRPAGAGLERHTPSLKKAEDRRDPPESNYIW | increases | decreases, decrease of more than 50% vs 100
WIF1 (Wnt Inhibitory Factor 1): T255/319A (protein) parent chain: MARRRAFPAFALRLWSILPCLLLLRADAGQPPEESLYLWIDAHQARVLIGFEEDILIVSEGKMAPFTHDFRKAQQRMPAIPVNIHSMNFTWQAAGQAEYFYEFLSLRSLDKGIMADPTVNVPLLGTVPHKASVVQVGFPCLGKQDGVAAFEVNVIVMNSEGNTILRTPQNAIFFKTCQQAECPGGCRNGGFCNERRVCECPDGFYGPHCEKALCIPRCMNGGLCVTPGFCICPPGFYGVNCDKANCSTTCFNGGTCFYPGKCICPPGLEGEQCELSKCPQPCRNGGKCIGKSKCKCPKGYQGDLCSKPVCEPGCGAHGTCHEPNKCQCREGWHGRHCNKRYGASLMHAPRPAGAGLERHTPSLKKAEDRRDPPESNYIW | increases | decreases, decrease of more than 50% vs 100
